Legend:
[1] = target: T1, IgV domain of human nectin-2 (human, UniProt Q92692 32-158); test: SPR
T1 sequence: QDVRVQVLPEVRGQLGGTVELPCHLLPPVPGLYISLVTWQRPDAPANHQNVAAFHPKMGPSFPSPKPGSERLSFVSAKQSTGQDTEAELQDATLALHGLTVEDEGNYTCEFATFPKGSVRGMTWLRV

[2] = target: T2, human PVR (poliovirus receptor) (human, UniProt P15151 21-343); test: SPR
T2 sequence (looked up): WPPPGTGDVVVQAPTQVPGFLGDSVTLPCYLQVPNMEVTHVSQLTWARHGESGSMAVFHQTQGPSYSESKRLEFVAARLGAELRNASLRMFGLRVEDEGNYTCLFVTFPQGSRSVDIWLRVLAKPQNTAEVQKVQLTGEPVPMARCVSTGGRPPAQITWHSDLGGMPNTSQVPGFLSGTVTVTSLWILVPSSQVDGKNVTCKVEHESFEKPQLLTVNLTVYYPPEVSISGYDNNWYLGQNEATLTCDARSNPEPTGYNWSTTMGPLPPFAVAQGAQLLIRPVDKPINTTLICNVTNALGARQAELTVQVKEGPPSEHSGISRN

Kd [1]: 11.5 ± 1.1 µM
Kd [2]: 0.36 ± 0.025 µM
B1: IgV domain of human TIGIT (residues 22 to 137) (domain or fragment, UniProt Q495A1 22-137, looked up)
chain: MMTGTIETTGNISAEKGGSIILQCHLSSTTAQVTQVNWEQQDQLLAICNADLGWHISPSFKDRVAPGPGLGLTLQSLTVNDTGEYFCIYHTYPDGTYTGRIFLEVLESSVAEHGAR

From article PMC5220579 (Molecular immunology, 2016)
